Experimental data: US20250277026A1

How the values were obtained:
human Claudin-4 (human) [1] = target: human Claudin-4 (human) (UniProt O14493); test: FACS, Claudin-4-CHO-K1 cells
human Claudin-4 (human) [2] = target: human Claudin-4 (human) (UniProt O14493); test: FACS, MCF7 cells (endogenous CLDN3 and CLDN4)
human Claudin-3 (human) [3] = target: human Claudin-3 (human) (UniProt O15551); test: FACS, Claudin-3-CHO-K1 cells (data not shown in the figures)
human Claudin-4 (human) [4] = target: human Claudin-4 (human) (UniProt O14493); test: FACS, Claudin-4-CHO-K1 cells, serial dilution of the antibody, MFI
human Claudin-3 (human) [5] = target: human Claudin-3 (human) (UniProt O15551); test: FACS, Claudin-3-CHO-K1 cells, 5 µg/ml
human Claudin-3 (human) [6] = target: human Claudin-3 (human) (UniProt O15551); test: FACS, MCF7 cells (endogenous CLDN3 and CLDN4)
human Claudin-3 (human) [7] = target: human Claudin-3 (human) (UniProt O15551); test: FACS, Claudin-3-CHO-K1 cells, serial dilution of the antibody, MFI

human Claudin-3 (human), sequence (O15551 whole entry): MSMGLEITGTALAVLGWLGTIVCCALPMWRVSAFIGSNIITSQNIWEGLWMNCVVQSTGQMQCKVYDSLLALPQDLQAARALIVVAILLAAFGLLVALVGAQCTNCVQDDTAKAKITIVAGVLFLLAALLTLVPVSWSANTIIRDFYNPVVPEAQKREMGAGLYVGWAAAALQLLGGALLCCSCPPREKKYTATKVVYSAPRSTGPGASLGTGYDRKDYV
human Claudin-4 (human), sequence (O14493 whole entry): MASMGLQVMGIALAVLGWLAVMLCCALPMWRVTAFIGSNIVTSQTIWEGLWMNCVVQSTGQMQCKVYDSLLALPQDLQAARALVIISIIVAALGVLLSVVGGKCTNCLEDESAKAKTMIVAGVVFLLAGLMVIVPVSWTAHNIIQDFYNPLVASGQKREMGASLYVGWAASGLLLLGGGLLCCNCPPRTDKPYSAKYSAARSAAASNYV

Row | Substance | fold MFI over isotype control (human Claudin-4 (human) [1]) [fold] | fold MFI over isotype control (human Claudin-4 (human) [2]) [fold] | fold MFI over isotype control (human Claudin-3 (human) [3]) [fold] | EC50 (read off the curve) (human Claudin-4 (human) [4]) [nM] | fold MFI over isotype control (human Claudin-3 (human) [5]) [fold] | fold MFI over isotype control (human Claudin-3 (human) [6]) [fold] | EC50 (read off the curve) (human Claudin-3 (human) [7]) [nM]
1 | anti-Claudin-4 antibody MAB4219 (R&D) | 33 | 15 | 9.7 | 2 | – | – | –
2 | anti-claudin 3 antibody MAB4620 (R&D) | – | – | – | – | 61 | 20 | 0.6
